“Also recorded” adds a separate entry of the source.
Experiments:
[1] = test system: renalase-1 and renalase-2; test: Renalase isoform specificity of anti-renalase antibodies; type: binding, human; details: renalase-1 vs renalase-2
Method: Peptides were used as immunogens. The peptides generated ranged from 9 to 21 amino acids and corresponded to regions of the renalase-1 and renalase-2 proteins. […] Each peptide was conjugated to the adjuvant KLH via the cysteine and used to immunize 6 rabbits. Antiserum collected from each animal was screened for anti-renalase antibody titer by ELISA assay using both the relevant peptide (BSA-conjugate) or full length renalase-1 or 2. The antisera were also tested for their ability to detect endogenous renalase in tissue lysates by western blot. Using these screening criteria the animals producing antibodies with the preferred characteristics were selected. In some examples and for some peptides, several animals produced antibodies with the required specificity. […] Polyclonal antibodies raised against all of the peptides were generated by purification of total IgG from terminal bleeds by protein G chromatography followed by further purification on peptide affinity chromatography. Further and using standard procedures, lymphocytes from the spleens of selected animals were fused to myeloma cells for hybridoma generation. The hybridoma supernatants were screened for binding to both the peptides against which they were raised and secondarily screened against whole renalase protein. Selected hybridomas were sub-cloned and expanded for antibody purification. The monoclonal antibodies were purified from conditioned hybridoma culture supernatant by protein A affinity chromatography.

[2] = test system: A375.S2 melanoma cells; test: Cell viability, WST-1, A375.S2 melanoma cells; type: cell-based, human; details: A375.S2, 72 hrs
Method: FIG. 19A through FIG. 19D are a series of images and charts showing that inhibition of RNLS signaling is cytotoxic to melanoma cells in vitro. […] FIG. 19B comprises two charts depicting relative cell viability: Left panel: Cells were treated with indicated antibodies for 72 hrs and cell viability was determined using WST-1; m28-RNLS (also known as 1D-28-4), m37-RNLS (also known as 1D-37-10): monoclonal antibodies raised against RNLS peptide RP220; Right panel: A375.S2 cells treated with increasing doses of m28-RNLS for 72 hrs and cell viability determined with a WST-1 assay; n=6, * indicates p<0.05 and ** indicates p<0.005. FIG. 19C comprises representative photos of A375.S2, SkMe128, and SkMe15 after 72 hrs incubation with either control rabbit IgG or m28-RNLS. FIG. 19D is a chart depicting relative cell viability, comprising amino acid (AA) sequence of RNLS peptide antagonist (RP220A).
For additional studies, cell viability was determined using WST-1 reagent (Roche Diagnostics, Indianapolis, Ind., USA) according to the manufacturers' instruction. Absorbances were read using a microplate reader (Power Waves XS, BioTek Instruments, Winooski, Vt., USA).

[3] = test system: Panc1 cells; test: FACS apoptosis and cell cycle analysis of Panc1 cells; type: cell-based, human; details: 30 μg/ml
Method: (§1) FIG. 26A through FIG. 26E are a series of images and charts showing that inhibition of RNLS signaling induces apoptosis and cell cycle arrest. […] FIG. 26B is a chart depicting FACS analysis of Panc1 cells in culture treated with either m28-RNLS (30 μg/ml) or 100 μM etoposide (positive control) for 4 days; n=3, * indicates p<0.05. FIG. 26C is an image showing Panc1 cells treated with polyclonal ab31291 or with goat IgG as a negative control, and cells lysates probed for p38 and Bax activation by western blot. […] FIG. 26E is a chart showing the effect of m28-RNLS on cell cycle of Panc1 cells determined by FACS analysis; green curve: no treatment, purple curve: rabbit IgG, red curve: m28-RNLS 30 μg/ml.
For cell cycle analysis, cultured cells were dissociated using 10 mM EDTA, fixed with ice-cold 70% ethanol, digested with RNAse A, and stained with propidium iodide. Propidium staining was detected using a BD FACSCalibur flow cytometer (BD Biosciences, San Jose, Calif., USA), and analyzed using CellQuest software.
Apoptosis was detected and quantified as previously done (Guo et al., 2012 Cancer Science. 103(8):1474-80). […] At least 20,000 events were collected on a BD FACSCalibur flow cytometer (BD Biosciences, San Jose, Calif., USA) and analyzed using CellQuest software.

[4] = test system: STAT3; test: STAT3 phosphorylation in Panc1 cells by western blot; type: cell-based, human; details: antibody treatment for up to 4 days; listed as m28-RNLS
Description: FIG. 27A through FIG. 27E are a series of images and charts showing the interaction between RNLS and STAT3, and the mechanistic model of inhibition by m28-RNLS. FIG. 27A is an image showing activation of STAT3 by RNLS in Panc1 cells; Panc1 cells in culture treated with either BSA or RNLS, and STAT3 phosphorylation assessed by western blot; p-Ser^727-STAT3: phosphorylation at serine 727, p-Y^705-STAT3: phosphorylation at tyrosine 705; representative study. FIG. 27B is a chart depicting the quantification of STAT3 phosphorylation with RNLS; signals normalized to total STAT3; n=3, *=P<0.05. […] FIG. 27D is a chart showing the quantification of STAT3 phosphorylation with m28-RNLS; signals normalized to GAPDH loading control; n=3, *=P<0.05. FIG. 27E depicts the proposed mechanistic model for antitumor activity of m28-RNLS.

[5] = test system: p38 MAPK; test: p38 MAPK phosphorylation in Panc1 cells by western blot; type: cell-based, human; details: beginning at day 1 post treatment
Method: as §1

B1: 1D-28-4: rabbit anti-renalase monoclonal raised against peptide RP-220 (antigen 1D); heavy chain SEQ ID NO:9, light chain SEQ ID NO:10 (antibody)
heavy: METGLRWLLLVAVLKGVQCQSVEESGGRLVTPGTPLTLTCTVSGFSLSSFAVGWVRQAPGKGLEYIGIISSVGITRYASWAAGRFTISKTSTTVDLKITSPTTEDTATYFCARYGYSGDVNRLDLWGQGTLVTVSSGQPKAPSVFPLAPCCGDTPSSTVTLGCLVKGYLPEPVTVTWNSGTLTNGVRTFPSVRQSSGLYSLSSVVSVTSSSQPVTCNVAHPATNTKVDKTVAPSTCSKPTCPPPELLGGPSVFIFPPKPKDTLMISRTPEVTCVVVDVSQDDPEVQFTWYINNEQVRTARPPLREQQFNSTIRVVSTLPIAHQDWLRGKEFKCKVHNKALPAPIEKTISKARGQPLEPKVYTMGPPREELSSRSVSLTCMINGFYPSDISVEWEKNGKAEDNYKTTPAVLDSDGSYFLYSKLSVPTSEWQRGDVFTCSVMHEALHNHYTQKSISRSPGK
light: MDTRAPTQLLGLLLLWLPGATFAQVLTQTASPVSAAVGGTVTINCQASQSVYDNNNLAWYQQKPGQPPKQLIYGASTLASGVSSRFKGSGSGTQFTLTISGVQCDDAATYYCLGEFSCSSADCFAFGGGTEVVVKGDPVAPTVLIFPPSADLVATGTVTIVCVANKYFPDVTVTWEVDGTTQTTGIENSKTPQNSADCTYNLSSTLTLTSTQYNSHKEYTCKVTQGTTSVVQSFNRGDC
modifications: oryctolagus cuniculus
[1]
  renalase isoform specificity: recognize renalase-1 and renalase-2
[2]
  cytotoxicity with increasing dose: increasing levels of cytotoxicity in correlation with increasing treatment concentrations
[3]
  cell cycle of Panc1 cells: pre-G2 cell cycle arrest
[3]; 4 days
  apoptosis of Panc1 cells: caused apoptosis
[4]
  p-Y705-STAT3 in Panc1: long-lasting and sustained decrease; also recorded: inhibits STAT3 phosphorylation
[5]
  phosphorylation of p38 MAPK: sustained phosphorylation
